B1: Arabidopsis aspartate transcarbamoylase, construct spanning aa 82-390 (atATC) (enzyme, Arabidopsis thaliana, UniProt P49077 82-390, looked up)
chain: FELSDVIEGKQFDREMLSAIFDVAREMEKIEKSSSQSEILKGYLMATLFYEPSTRTRLSFESAMKRLGGEVLTTENAREFSSAAKGETLEDTIRTVEGYSDIIVMRHFESGAARKAAATANIPVINAGDGPGEHPTQALLDVYTIQSEIGKLDGISVALVGDLANGRTVRSLAYLLAKFKDVKIYFVSPEIVKMKDDIKDYLTSSGVEWEESSDLMEVASKCDVVYQTRIQRERFGERLDLYEAARGKYIVDKDLLGVMQKKAIIMHPLPRLDEITADVDADPRAAYFRQAKNGLFIRMALLKLLLVGW
notes: aspartate transcarbamoylase (ATC; pyrB; At3g20330), Arabidopsis thaliana, aa 82-390 of the 390 aa precursor, i.e. without the N-terminal chloroplast transit peptide; Homotrimer; As purified it carries UMP captured during expression; a UMP-freed form was also made; also called WT; recombinant ATC; source: E. coli BLR(DE3)-pLysS, purified (Ni-sepharose, size-exclusion chromatography); not shown: …
B2: atATC mutant F161A (enzyme, Arabidopsis thaliana, UniProt P49077 82-390, looked up)
chain: FELSDVIEGKQFDREMLSAIFDVAREMEKIEKSSSQSEILKGYLMATLFYEPSTRTRLSFESAMKRLGGEVLTTENAREASSAAKGETLEDTIRTVEGYSDIIVMRHFESGAARKAAATANIPVINAGDGPGEHPTQALLDVYTIQSEIGKLDGISVALVGDLANGRTVRSLAYLLAKFKDVKIYFVSPEIVKMKDDIKDYLTSSGVEWEESSDLMEVASKCDVVYQTRIQRERFGERLDLYEAARGKYIVDKDLLGVMQKKAIIMHPLPRLDEITADVDADPRAAYFRQAKNGLFIRMALLKLLLVGW
notes: aspartate transcarbamoylase (ATC; pyrB; At3g20330), Arabidopsis thaliana, aa 82-390 of the 390 aa precursor, with F161A in the CP-loop; Same construct as m1 with the point mutation F161A, made by site-directed mutagenesis; also called atATC-F161A; source: E. coli BLR(DE3)-pLysS, purified (Ni-sepharose, size-exclusion chromatography); not shown: 2.6 kDa fusion tag (from a modified pET28a plasmid)

What was measured:
[1] = molecular target: the molecule itself; assay: SEC-MALS; 400 ul purified protein at 1.4 mg/ml on Superdex 200 10/300 in GF buffer (20 mM Tris pH 7.0, 0.1 M NaCl, 2% glycerol, 0.2 mM TCEP); also the UMP-freed sample and the sample pre-incubated with PALA (Supplementary Fig. 4)
[2] = molecular target: the molecule itself; assay: crystal structure; sitting-drop vapor diffusion at room temperature, PEG 3350 conditions; with UMP, apo, with PALA, with PALA and CP, with CP; molecular replacement with PDB 5G1O

Protein	stoichiometry N [1]	binding result [2]
B1	3	–
B2	–	binds

From doi:10.1101/2020.07.17.208231, “UMP inhibition and sequential firing in aspartate transcarbamoylase open ways to regulate plant growth” (bioRxiv, 2020)
